This is an account of results in article PMC9418005 (Nature Microbiology, 2022).

The target of assay [1] is T1, original 2019-nCoV spike trimer (SARS-CoV-2 original 2019-nCoV …, UniProt P0DTC2, 2 prolines (P986–P987) | residues 682–685 mutated to GSAS). Briefly: Luminex bead-based binding assay. The settings on record: both partners purified.
In assay [2] the target is Alpha (B.1.1.7) variant spike trimer (SARS-CoV-2 Alpha (B.1.1.7), 2 prolines (P986–P987) | residues 682–685 mutated to GSAS). Briefly: cell-based or functional assay.
The target in assay [3] is Delta (B.1.617.2) variant spike trimer (SARS-CoV-2 Delta (B.1.617.2), 2 prolines (P986–P987) | residues 682–685 mutated to GSAS). In words: cell-based or functional assay.
The target in assay [4] is Gamma (P.1) variant spike trimer (SARS-CoV-2 Gamma (P.1), 2 prolines (P986–P987) | residues 682–685 mutated to GSAS). In words: cell-based or functional assay.
The target in assay [5] is Beta (B.1.351) variant spike trimer (SARS-CoV-2 Beta (B.1.351), 2 prolines (P986–P987) | residues 682–685 mutated to GSAS). In words: cell-based or functional assay.
For assay [6], the target named is D614G mutant spike trimer (SARS-CoV-2 2019-nCoV D614G, D614G | 2 prolines (P986–P987) | residues 682–685 mutated to GSAS). Briefly: cell-based or functional assay.
Assay [7] has as its target T1, original 2019-nCoV spike trimer. In words: Luminex spike-ACE2 surrogate neutralization assay. The settings on record: both partners purified.

B1: P2G3 LS human IgG1 monoclonal antibody (antibody, V domains shown)
VH: EVQLVESGGGLVQPGRSLRLSCAASGFRFDDYALHWVRQAPEKGLEWVSGISWNSNNIGYAESVKGRFTISRDTAKKSLYLQMNDLRAEDTALYYCVKDRHYDSSGYFVNGFDIWGQGTLVTVSA
VL: DIQLTQSPSFLSASVGDRVTVTCRASQGISSYVAWYQQKAGKAPTLLIYTASTLQSGVPSRFSGSGSGTEFTLTISSLQPEDFATYYCQQLHSYPVTFGQGTRLDIE
Consider B1, for which the binding result in assay [1] is “binds”. In addition, the “IC80, live SARS-CoV-2 cytopathic effect neutralization assay, Vero E6 cells” value came out at 0.01 µg/mL in assay [2]; 0.024 µg/mL in assay [3]; 0.021 µg/mL in assay [4]; 0.017 µg/mL in assay [5]; 0.028 µg/mL in assay [6].

B2: P5C3 LS monoclonal antibody (antibody, V domains shown)
VH: QMQLVQSGPEVKKPGTSVKVSCKASGFTFTSSAVQWVRQARGQRLEWIGWIVVGSGNTDYAQQFQERVTITRDMSTSTAYMELSSLGSEDTAVYYCAAPNCSGGSCYDGFDLWGQGTMVTVSS
VL: EIVLTQSPGTLSLSPGERATLSCRGSQSVRSSYLGWYQQKPGQAPRLLIYGASSRATGIPDRFSGSGSGTDFTLTISRLEPEDFAVYYCQQYGSSPWTFGQGTKVEIK
For the molecule B2, the binding result in assay [7] is recorded as “binds”.
